# B1: Zinc finger protein Aiolos (Homo sapiens), Q9UKT9 (parent)
# chain: MEDIQTNAELKSTQEQSVPAESAAVLNDYSLTKSHEMENVDSGEGPANEDEDIGDDSMKVKDEYSERDENVLKSEPMGNAEEPEIPYSYSREYNEYENIKLERHVVSFDSSRPTSGKMNCDVCGLSCISFNVLMVHKRSHTGERPFQCNQCGASFTQKGNLLRHIKLHTGEKPFKCHLCNYACQRRDALTGHLRTHSVEKPYKCEFCGRSYKQRSSLEEHKERCRTFLQSTDPGDTASAEARHIKAEMGSERALVLDRLASNVAKRKSSMPQKFIGEKRHCFDVNYNSSYMYEKESELIQTRMMDQAINNAISYLGAEALRPLVQTPPAPTSEMVPVISSMYPIALTRAEMSNGAPQELEKKSIHLPEKSVPSERGLSPNNSGHDSTDTDSNHEERQNHIYQQNHMVLSRARNGMPLLKEVPRSYELLKPPPICPRDSVKVINKEGEVMDVYRCDHCRVLFLDYVMFTIHMGCHGFRDPFECNMCGYRSHDRYEFSSHIARGEHRALLK
# partner: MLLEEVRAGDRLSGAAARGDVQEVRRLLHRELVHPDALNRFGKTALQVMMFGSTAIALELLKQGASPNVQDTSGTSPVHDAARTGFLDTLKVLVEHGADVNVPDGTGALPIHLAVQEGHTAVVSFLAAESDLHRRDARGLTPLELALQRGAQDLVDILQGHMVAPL
# B2: Microtubule-associated tumor suppressor candidate 2 (Homo sapiens), Q5JR59-3 (parent)
# chain: MGHCCCKPYNCLQCLDKTNESALVKEKELSIELANIRDEVAFHTAKCEKLQKEKEELERRFEDEVKRLGWQQQAELQELEERLQLQFEAEMARLQEEHGDQLLSIRCQHQEQVEDLTASHDAALLEMENNHTVAITILQDDHDHKVQELMSTHELEKKELEENFEKLRLSLQDQVDTLTFQSQSLRDRARRFEEALRKNTEEQLEIALAPYQHLEEDMKSLKQVLEMKNQQIHEQEKKILELEKLAEKNIILEEKIQVLQQQNEDLKARIDQNTVVTRQLSEENANLQEYVEKETQEKKRLSRTNEELLWKLQTGDPTSPIKLSPTSPVYRGSSSGPSSPARVSTTPR
# partner: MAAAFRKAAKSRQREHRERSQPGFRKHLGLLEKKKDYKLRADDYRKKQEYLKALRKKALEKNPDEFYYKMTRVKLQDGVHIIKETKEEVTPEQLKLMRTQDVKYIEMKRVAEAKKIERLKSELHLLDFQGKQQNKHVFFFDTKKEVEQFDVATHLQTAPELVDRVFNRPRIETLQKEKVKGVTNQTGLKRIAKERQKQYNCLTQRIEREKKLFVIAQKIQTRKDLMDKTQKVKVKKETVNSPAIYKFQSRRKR
# B3: Sodium channel modifier 1 (Homo sapiens), Q9BWG6 (parent)
# chain: MSFKREGDDWSQLNVLKKRRVGDLLASYIPEDEALMLRDGRFACAICPHRPVLDTLAMLTAHRAGKKHLSSLQLFYGKKQPGKERKQNPKHQNELRREETKAEAPLLTQTRLITQSALHRAPHYNSCCRRKYRPEAPGPSVSLSPMPPSEVKLQSGKISREPEPAAGPQAEESATVSAPAPMSPTRRRALDHYLTLRSSGWIPDGRGRWVKDENVEFDSDEEEPPDLPLD
# partner: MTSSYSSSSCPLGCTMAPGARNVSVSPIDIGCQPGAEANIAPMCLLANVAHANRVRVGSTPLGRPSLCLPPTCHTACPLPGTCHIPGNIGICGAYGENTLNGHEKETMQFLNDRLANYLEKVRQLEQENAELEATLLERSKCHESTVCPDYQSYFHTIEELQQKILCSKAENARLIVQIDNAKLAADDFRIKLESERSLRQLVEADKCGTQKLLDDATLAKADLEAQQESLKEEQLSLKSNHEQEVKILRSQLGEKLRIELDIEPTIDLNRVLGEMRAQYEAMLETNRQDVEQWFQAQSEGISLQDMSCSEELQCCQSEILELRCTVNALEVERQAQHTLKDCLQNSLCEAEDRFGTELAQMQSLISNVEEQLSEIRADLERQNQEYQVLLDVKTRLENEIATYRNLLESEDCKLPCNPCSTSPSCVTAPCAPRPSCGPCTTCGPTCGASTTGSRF
# B4: Notch homolog 2 N-terminal-like protein A (Homo sapiens), Q7Z3S9 (parent)
# chain: MCVTYHNGTGYCKCPEGFLGEYCQHRDPCEKNRCQNGGTCVAQAMLGKATCRCASGFTGEDCQYSTSHPCFVSRPCLNGGTCHMLSRDTYECTCQVGFTGKECQWTDACLSHPCANGSTCTTVANQFSCKCLTGFTGQKCETDVNECDIPGHCQHGGTCLNLPGSYQCQCLQGFTGQYCDSLYVPCAPSPCVNGGTCRQTGDFTFECNCLPETVRRGTELWERDREVWNGKEHDEN
# partner: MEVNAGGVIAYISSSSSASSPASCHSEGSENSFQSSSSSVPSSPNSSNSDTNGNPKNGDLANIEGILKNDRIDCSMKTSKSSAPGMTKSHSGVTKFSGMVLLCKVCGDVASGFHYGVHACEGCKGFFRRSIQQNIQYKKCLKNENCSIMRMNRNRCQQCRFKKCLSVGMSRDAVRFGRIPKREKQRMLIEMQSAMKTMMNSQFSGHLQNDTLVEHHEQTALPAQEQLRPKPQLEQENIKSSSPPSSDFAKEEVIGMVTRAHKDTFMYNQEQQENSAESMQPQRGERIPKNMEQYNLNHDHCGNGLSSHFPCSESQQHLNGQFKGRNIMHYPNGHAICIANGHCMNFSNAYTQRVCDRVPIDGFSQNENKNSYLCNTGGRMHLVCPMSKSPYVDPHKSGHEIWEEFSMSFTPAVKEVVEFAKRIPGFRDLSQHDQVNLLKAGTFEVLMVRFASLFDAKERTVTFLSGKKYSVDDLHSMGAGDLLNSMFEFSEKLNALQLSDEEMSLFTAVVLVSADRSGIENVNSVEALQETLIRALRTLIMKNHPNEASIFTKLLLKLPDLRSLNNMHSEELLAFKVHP
# Variants of: B1
# Conditions: with cdn2d_human CDKN2D
row,effect of a mutation on the interaction,Variant
1,with no effect,N119D

# Variants of: B1
# Conditions: with cdn2d_human CDKN2D
# Remark: another data set of the same source
row,effect of a mutation on the interaction,Variant
1,with no effect,I338M

# Variants of: B2
# Conditions: with utp11_human UTP11, Q9Y3A2
row,effect of a mutation on the interaction,Variant
1,with no effect,A89V

# Variants of: B3
# Conditions: with krt38_human KRT38, O76015
row,effect of a mutation on the interaction,Variant
1,with no effect,A174V

# Variants of: B4
# Conditions: with nr1d2_human NR1D2, Q14995
row,effect of a mutation on the interaction,Variant
1,with no effect,R74Q
2,with no effect,A115T

# From IntAct's records for PubMed 31515488
